Test [1] concerns the target T1, GPR64 protein (SEQ ID NO:2) (human, UniProt Q8IZP9 38-1017).
T1 construct: Endogenous GPR64 on human tumor cells (NCI-H460) or in tissue sections; also called Ov1; HE6
The test can be described thus: competitive FACS on H460 cells, confirmed by Biacore. Here is the method: Epitope mapping was performed by competitive FACS assay. Briefly, H460 cells were incubated with 25 ug/ml unlabeled antibody for 1 hr on ice, at which time various amounts of FITC labeled antibody was added. After 30 additional minutes, cells were washed one time and fluorescence was measured by flow cytometry. All data was confirmed by Biacore.

Test [2] deals with T2, GPR64 protein (SEQ ID NO:2) (UniProt Q8IZP9 38-1017).
T2 chain: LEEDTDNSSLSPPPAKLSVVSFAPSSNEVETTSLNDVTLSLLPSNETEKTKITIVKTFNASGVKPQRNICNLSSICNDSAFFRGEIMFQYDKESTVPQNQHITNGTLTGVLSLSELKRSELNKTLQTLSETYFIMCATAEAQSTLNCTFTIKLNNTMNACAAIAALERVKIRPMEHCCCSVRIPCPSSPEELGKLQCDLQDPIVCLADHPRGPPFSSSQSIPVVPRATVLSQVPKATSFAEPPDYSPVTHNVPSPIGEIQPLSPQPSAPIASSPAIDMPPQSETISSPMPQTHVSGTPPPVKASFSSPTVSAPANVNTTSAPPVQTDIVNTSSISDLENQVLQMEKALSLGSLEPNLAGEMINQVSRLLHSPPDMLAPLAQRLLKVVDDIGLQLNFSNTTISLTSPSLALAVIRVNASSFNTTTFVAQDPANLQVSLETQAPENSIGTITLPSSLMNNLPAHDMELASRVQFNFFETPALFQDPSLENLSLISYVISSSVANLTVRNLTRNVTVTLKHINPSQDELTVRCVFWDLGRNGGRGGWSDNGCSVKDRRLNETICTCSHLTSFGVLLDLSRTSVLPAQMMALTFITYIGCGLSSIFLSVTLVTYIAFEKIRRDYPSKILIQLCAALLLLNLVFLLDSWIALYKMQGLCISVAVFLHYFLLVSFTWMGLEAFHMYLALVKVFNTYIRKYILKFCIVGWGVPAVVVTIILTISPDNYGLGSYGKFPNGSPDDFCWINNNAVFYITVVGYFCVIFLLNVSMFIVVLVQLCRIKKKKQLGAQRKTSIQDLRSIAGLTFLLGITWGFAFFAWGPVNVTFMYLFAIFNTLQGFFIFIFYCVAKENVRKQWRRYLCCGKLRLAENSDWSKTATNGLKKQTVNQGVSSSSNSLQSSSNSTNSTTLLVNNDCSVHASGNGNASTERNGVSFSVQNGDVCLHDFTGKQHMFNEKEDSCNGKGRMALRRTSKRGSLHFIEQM
Briefly: FACS.

For test [3], the target named is T3, human GPR64-Fc fusion protein (human, UniProt Q8IZP9 38-591).
T3 construct: Immunogen, and the analyte in the Biacore kinetics
The test can be described thus: affinity screen of Example 4 (Biacore/FACS); form of the target not restated.

B1: GPR64-18 (antibody, V domains shown)
VH: QVSLKESGPGILQPSQTLSLTCSFSGFSLSTSGMGVSWIRQPSGKGLEWLAHIYWDDDKRYNPSLKSRLTISKDTSSNLVFLKITSVDTADTATYYCARREVRRDYYAMDYWGQGTSVTVSS
VL: SIVMTQTPKFLLVSAGDRITIACRASQSVSNDVAWYQQKPGQSPKLLINYTSNRYTGVPDRFTGSGYGTDFTFTISTVQAEDLAVYFCQQAYSSPWTFGGGTKLEIK
notes: Mouse monoclonal antibody raised against GPR64-Fc; also called GPR64-18 antibody
Turning to B1, the binding result in test [1] and in test [3] was “binds” each time. In test [2], this molecule yielded a 50% effective concentration (EC50) of about 4 nM.

The values above are taken from US20040197325A1 (PDL BIOPHARMA, published 2004).
